This assay concerns the target yeast-displayed unmodified gp140 from HIV strain YU2, fused at its C-terminal to Aga2p (HIV-1 group M subtype B, isolate YU-2, UniProt P35961, strain). The experiment in a line: flow cytometry on cells; yeast cells displaying YU2 Env-Aga2p fusions incubated with 100 nM precursor antibody at 4°C for 16-18 h in PBI (PBS pH 7.2, 1% BSA, protease inhibitors); fluorescent secondary antibody. The following applies: one partner purified.

B1: reconstructed predicted precursor form of antibody 447-52D (antibody, V domains shown)
VH: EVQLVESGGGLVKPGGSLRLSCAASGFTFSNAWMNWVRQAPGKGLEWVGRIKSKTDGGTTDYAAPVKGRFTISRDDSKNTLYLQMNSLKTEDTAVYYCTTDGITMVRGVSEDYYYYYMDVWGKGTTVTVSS
VL: QSVLTQPPSVSAAPGQKVTISCSGSSSNIGNNYVSWYQQLPGTAPKLLIYDNNKRPSGIPDRFSGSKSGTSATLGITGLQTGDEADYYCGTWDSSLSAGWVFGGGTKLTVL
notes: V(D)J segments with the highest identity to mature 447-52D (IgBLAST), mature HCDR3 kept; Detected with anti-human secondary antibodies; also called precursor for antibody 447-52D; 447-52D precursor; source: HEK293T, transfected, purified
Turning to B1, the binding result is on record as “no binding (tested: 100 nM)”.

B2: reconstructed predicted precursor form of antibody VRC01 (antibody, V domains shown)
VH: not shown
VL: EIVLTQSPATLSLSPGERATLSCRASQSVSSYLAWYQQKPGQAPRLLIYDASNRATGIPARFSGSGSGTDFTLTISSLEPEDFAVYYCQQRSNWPYTFGQGTKLEIK
notes: V(D)J segments with the highest identity to mature VRC01 (IgBLAST), mature HCDR3 kept; Detected with anti-human secondary antibodies; also called precursor for antibody VRC01; VRC01 precursor; source: HEK293T, transfected, purified
In the case of B2, the binding result was “no binding (tested: 100 nM)”.
